# Measurements as given in patent US20080124811A1 (AbbVie / Abbott, published 2008).
# B1: 106.3 single-chain variable fragment (scFv), unmutated, on yeast (scFv)
# chain: QIQLVQSGPELRKPGETVKISCKGSGYTFTHYGINWVKQTPRKDLKWMGWINTHTGEPIYADDFKGRFAFSLETSANTAYLQINNLNNGDMGTYFCTRSHRFGLDYWGQGTSVTVSSGPAKELTPLKEAKVSDNVLTQSPPSLAVSLGQRATISCKASQSVDYNGDSYLNWYQQKPGQPPKFLIYAASNLESGIPARFSGSGSGTDFNLNIHPVEEEDAATYYCQQSNEDPFTFGSGTKLEIK
# B2: 106.3 wt (Mouse IgG1) (antibody, V domains shown)
# VH: QLVQSGPELRKPGETVKISCKGSGYTFTHYGINWVKQTPRKDLKWMGWINTHTGEPIYADDFKGRFAFSLETSANTAYLQINNLNNGDMGTYFCTRSHRFGLDYWGQGTSVTVSS
# VL: DNVLTQSPPSLAVSLGQRATISCKASQSVDYNGDSYLNWYQQKPGQPPKFLIYAASNLESGIPARFSGSGSGTDFNLNIHPVEEEDAATYYCQQSNEDPFTFGSGTKLEIKR
# notes: also called HB-12044
# B3: 500-2 (scFv)
# scFv (VH-linker-VL with V5 and 6His tags), displayed on yeast: QVQLQQPGAELVRPGASVKLSCKASGYTFTSYWMNWVKQRPEQGLEWIGRIDPYDSETHYNQKFKDKAILTVDKSSSTAFVQLTSLTSEDSAVYYCVSDGYWGAGTTVTVSSGPAKELTPLKEAKVSDVVMTQTPLTLSVTTGQPASISCKSSQSLLDSDGKTYLNWLFQRPGESPKLLIYWTTKLESGVPDRFTGSGSGTDFTLKISRVEAEDLGVYYCLQATHFPWTFGGGTKLEIKRAAALESRGPFEGKPIPNPLLGLDSTRTGHHHHHH
# notes: selected by on/off-rate sorting; member of group m17
# B4: 500-1 (scFv)
# scFv (VH-linker-VL with V5 and 6His tags), displayed on yeast: QVQLQQPGAELVRPGASVKLSCKASGYTFTSYWMNWVKQRPEQGLEWIGRIDPYDSETHYNQKFKDKAILTVDKSSSTAFVQLTSLTSEDSAVYYCVSDGYWGAGTTVTVSSGPAKELTPLKEAKVSDVVMTQTPLTLSVTTGQPASISCKSSQSLLDSDGKTYLNWLFQRPGESPKLLIYWMDKLESGVPDRFTGSGSGTDFTLKISRVEAEDLGVYYCLQATHFPWTFGGGTKLEIKRAAALESRGPFEGKPIPNPLLGLDSTRTGHHHHHH
# notes: as for B3
# B5: 500-10 (scFv)
# scFv (VH-linker-VL with V5 and 6His tags), displayed on yeast: QVQLQQPGAELVRPGASVKLSCKASGYTFTSYWMNWVKQRPEQGLEWIGRIDPYDSETHYNQKFKDKAILTVDKSSSTAFVQLTSLTSEDSAVYYCVSDGYWGAGTTVTVSSGPAKELTPLKEAKVSDVVMTQTPLTLSVTTGQPASISCKSSQSLLDSDGKTYLNWLFQRPGESPKLLIYVTDILESGVPDRFTGSGSGTDFTLKISRVEAEDLGVYYCLQATHFPWTFGGGTKLEIKRAAALESRGPFEGKPIPNPLLGLDSTRTGHHHHHH
# notes: as for B3
# B6: L2 1 (scFv)
# scFv (VH-linker-VL with V5 and 6His tags), displayed on yeast: QVQLQQPGAELVRPGASVKLSCKASGYTFTSYWMNWVKQRPEQGLEWIGRIDPYDSETHYNQKFKDKAILTVDKSSSTAFVQLTSLTSEDSAVYYCVSDGYWGAGTTVTVSSGPAKELTPLKEAKVSDVVMTQTPLTLSVTTGQPASISCKSSQSLLDSDGKTYLNWLFQRPGESPKLLIYQNTKLESGVPDRFTGSGSGTDFTLKISRVEAEDLGVYYCLQATHFPWTFGGGTKLEIKRAAALESRGPFEGKPIPNPLLGLDSTRTGHHHHHH
# notes: selected by equilibrium sorting; member of group m17
# B7: L2 4 (scFv)
# scFv (VH-linker-VL with V5 and 6His tags), displayed on yeast: QVQLQQPGAELVRPGASVKLSCKASGYTFTSYWMNWVKQRPEQGLEWIGRIDPYDSETHYNQKFKDKAILTVDKSSSTAFVQLTSLTSEDSAVYYCVSDGYWGAGTTVTVSSGPAKELTPLKEAKVSDVVMTQTPLTLSVTTGQPASISCKSSQSLLDSDGKTYLNWLFQRPGESPKLLIYHTTKLESGVPDRFTGSGSGTDFTLKISRVEAEDLGVYYCLQATHFPWTFGGGTKLEIKRAAALESRGPFEGKPIPNPLLGLDSTRTGHHHHHH
# notes: as for B6
# B8: L2 7 (scFv)
# scFv (VH-linker-VL with V5 and 6His tags), displayed on yeast: QVQLQQPGAELVRPGASVKLSCKASGYTFTSYWMNWVKQRPEQGLEWIGRIDPYDSETHYNQKFKDKAILTVDKSSSTAFVQLTSLTSEDSAVYYCVSDGYWGAGTTVTVSSGPAKELTPLKEAKVSDVVMTQTPLTLSVTTGQPASISCKSSQSLLDSDGKTYLNWLFQRPGESPKLLIYWMTKLESGVPDRFTGSGSGTDFTLKISRVEAEDLGVYYCLQATHFPWTFGGGTKLEIKRAAALESRGPFEGKPIPNPLLGLDSTRTGHHHHHH
# notes: as for B6
# B9: L2 8 (scFv)
# scFv (VH-linker-VL with V5 and 6His tags), displayed on yeast: QVQLQQPGAELVRPGASVKLSCKASGYTFTSYWMNWVKQRPEQGLEWIGRIDPYDSETHYNQKFKDKAILTVDKSSSTAFVQLTSLTSEDSAVYYCVSDGYWGAGTTVTVSSGPAKELTPLKEAKVSDVVMTQTPLTLSVTTGQPASISCKSSQSLLDSDGKTYLNWLFQRPGESPKLLIYWMNKLESGVPDRFTGSGSGTDFTLKISRVEAEDLGVYYCLQATHFPWTFGGGTKLEIKRAAALESRGPFEGKPIPNPLLGLDSTRTGHHHHHH
# notes: as for B6
# B10: L2 9 (scFv)
# scFv (VH-linker-VL with V5 and 6His tags), displayed on yeast: QVQLQQPGAELVRPGASVKLSCKASGYTFTSYWMNWVKQRPEQGLEWIGRIDPYDSETHYNQKFKDKAILTVDKSSSTAFVQLTSLTSEDSAVYYCVSDGYWGAGTTVTVSSGPAKELTPLKEAKVSDVVMTQTPLTLSVTTGQPASISCKSSQSLLDSDGKTYLNWLFQRPGESPKLLIYVTDKLESGVPDRFTGSGSGTDFTLKISRVEAEDLGVYYCLQATHFPWTFGGGTKLEIKRAAALESRGPFEGKPIPNPLLGLDSTRTGHHHHHH
# notes: selected by off-rate sorting; member of group m17
# B11: L2 10 (scFv)
# scFv (VH-linker-VL with V5 and 6His tags), displayed on yeast: QVQLQQPGAELVRPGASVKLSCKASGYTFTSYWMNWVKQRPEQGLEWIGRIDPYDSETHYNQKFKDKAILTVDKSSSTAFVQLTSLTSEDSAVYYCVSDGYWGAGTTVTVSSGPAKELTPLKEAKVSDVVMTQTPLTLSVTTGQPASISCKSSQSLLDSDGKTYLNWLFQRPGESPKLLIYRTNKLESGVPDRFTGSGSGTDFTLKISRVEAEDLGVYYCLQATHFPWTFGGGTKLEIKRAAALESRGPFEGKPIPNPLLGLDSTRTGHHHHHH
# notes: as for B10
# B12: 3-631-436 (mIgG2bκ, IgG name AM1) (antibody, V domains shown)
# VH: QVQLQQPGAELVRPGASVKLSCKASGYTFTSYWMNWVKQRPEQGLEWIGRIDPYDSETHYNQKFKDKAILTVDKSSSTAFVQLTSLTSEDSAVYYCVSDGYWGAGTTVTVSS
# VL: DVVMTQTPLTLSVTTGQPASISCKSSQSLLDSDGKTYLNWLFQRPGESPKLLIYVVSKLESGVPDRFTGSGSGTDFTLKISRVEAEDLGVYYCLQATHFPWTFGGGTKLEIKR
# notes: recombinant wild-type variable domains on mouse IgG2b/kappa
# B13: wild-type 106.3 chimeric antibody (cAb) (antibody, human IgG1, V domains shown)
# VH: QIQLVQSGPELRKPGETVKISCKGSGYTFTHYGINWVKQTPRKDLKWMGWINTHTGEPIYADDFKGRFAFSLETSANTAYLQINNLNNGDMGTYFCTRSHRFGLDYWGQGTSVTVSS
# VL: DNVLTQSPPSLAVSLGQRATISCKASQSVDYNGDSYLNWYQQKPGQPPKFLIYAASNLESGIPARFSGSGSGTDFNLNIHPVEEEDAATYYCQQSNEDPFTFGSGTKLEIK
# notes: Chimeric mouse variable domains on human IgG1/human kappa; also called anti-BNP WT/WT
# B14: 106.3 AM1 chimeric antibody (antibody, V domains shown)
# VH: QIQLVQSGPELRKPGETVKISCKGSGYTFTHYGINWVKQTPRKDLKWMGWINTHTGEAYYADDFKGRFAFSLETSANTAYLQINNLNNGDMGTYFCTRSHRFGLDYWGQGTSVTVSS
# VL: DNVLTQSPPSLAVSLGQRATISCKANWPVDYNGDSYLNWYQQKPGQPPKFLIYAASNLESGIPARFSGSGSGTDFNLNIHPVEEEDAATYYCQQSNEDPFTFGSGTKLEIK
# modifications: Conjugated to acridinium or biotinylated in the sandwich assays (Examples 4 and 7); the sites are not defined.
# notes: PTA-6987; Acridinium-conjugated or biotinylated in the sandwich assays
# Assays:
# [1] = target: T1, human brain natriuretic peptide, cyclic BNP (1-32c) (human, cyclic: ring closed by a disulfide bond between the two cysteine residues; biotinylated or acridinium-labelled in some assays); assay: off-rate assay on yeast-displayed scFv by flow cytometry: biotinylated cyclic BNP (1-32c), chase with unlabelled BNP 1-32c, SA:PE; m2 of the first order decay fit (error 3.6694e-06, R 0.9993), time axis in sec
# T1 construct: also called hBNP; hBNP 1-32
# [2] = target: T1, human brain natriuretic peptide, cyclic …; assay: off-rate assay on yeast-displayed scFv by flow cytometry: biotinylated cyclic BNP (1-32c), chase with unlabelled BNP 1-32c, SA:PE, first order decay fit
# Procedure: At each time point, cells were transferred to ice, washed and incubated with SA:PE. After 30 minutes, cells were washed again and analyzed on the flow cytometer. A first order decay equation was used to fit the individual time points where m1 was the theoretical maximum mean fluorescence units (“MFU”) at time 0, m2 was the off-rate (“koff”), m3 was the background MFU due to autofluorescence, and M0 was the time x (the x being the time that is being measured) that measurements are taken.
# A first order decay equation was used to fit the data.
# [3] = target: T1, human brain natriuretic peptide, cyclic …; assay: yeast display off-rate assay, flow cytometry; t1/2 = ln 2/koff
# Procedure: At each individual time point, yeast cells were transferred to ice to halt the reaction. Cells were then washed twice with PBS/BSA and suspended in secondary staining reagents, specifically, SA:PE and GAM:FITC. Cells were incubated on ice for 30 minutes, washed twice and then analyzed on the FACS Aria flow cytometer. […] A first order decay equation was used to fit the data.
# [4] = target: T1, human brain natriuretic peptide, cyclic …; assay: surface plasmon resonance (BIAcore)
# [5] = target: T1, human brain natriuretic peptide, cyclic …; assay: off-rate assay on yeast-displayed scFv; improvement of koff over 3-631-436 wt
# [6] = target: T1, human brain natriuretic peptide, cyclic …; assay: off-rate assay on yeast-displayed scFv by flow cytometry: biotinylated cyclic BNP (1-32c), chase with unlabelled BNP 1-32c, SA:PE, first order decay fit; remark: listed apart in the source
# [7] = target: T1, human brain natriuretic peptide, cyclic …; assay: Biacore SPR, antibody captured on goat anti-mouse Fc, BNP injected, 1:1 Langmuir fit
# Procedure: GAMFc in 10 mM sodium acetate (pH 5.0) is coupled to the activated surface with a 10 minute injection. The surface is then deactivated with 1 M ethanolamine pH 8.5 for 8 minutes followed by another 10 minute injection of GAMFc. This is followed with a biosensor conditioning of ten 60 second injections of 150 mM H₃PO₄ at a flow rate of 30 μL/min. ˜14 kRU, resonance units, of GAMFc is coupled to the biosensor in each flow cell.
# After loading each Ab onto the biosensor, all flow cells are allowed to equilibrate for 5-6 minutes with SPR running buffer at a flow rate of 75 μL/min before a 150 μL injection of BNP or running buffer followed by 360 seconds of dissociation time. Subsequently, the flow rate is changed to 30-100 μL/min and the surface is then regenerated with three 33-60 second pulses of 100-150 mM phosphoric acid at a flow rate of 30-100 μL/min.
# [8] = target: T1, human brain natriuretic peptide, cyclic …; assay: BIAcore SPR, cAb captured on goat anti-human Fc, BNP in solution, 25 C
# Procedure: The carboxymethyl-dextran biosensor is activated with an 8 minute injection of a 1:1 mixture of 0.4 M EDC and 0.1 NHS at 20 μL/minute. GAHFc in 10 mM sodium acetate (pH 5.0) is coupled to the activated surface with a 10 minute injection. The surface is then deactivated with 1 M ethanolamine pH 8.5 for 8 minutes followed by another 10 minute injection of GAHFc.
# A frozen (−80° C.) aliquot of BNP in dH₂O at 100 μM is diluted into SPR Running Buffer to a concentration of 100 μM.
# The sample solution is then switched back to SPR running buffer for another ˜7 hours. The surface is then regenerated with three 33 second pulses of 100 mM phosphoric acid at a flow rate of 100 μL/min.
# [9] = target: T1, human brain natriuretic peptide, cyclic …; assay: KinExA, solution phase
# [10] = target: T1, human brain natriuretic peptide, cyclic …; assay: … sandwich CMIA; capture 106.3AM1 on microparticles, detection 3-631-436-acridinium; second particle type
# Procedure: An aliquot containing a calibrator solution was delivered to the same well of the reaction vessel as the microparticles to form a reaction mixture. The calibrator solution contained hBNP full-length peptide. The microparticles coated with the capture antibody in a Tris/BSA diluent were pipetted by the sampling probe into the appropriate wells of the reaction vessel in the sampling center. […] After the incubation, the reaction mixture was washed with the […] ® Line Diluent to remove any of the calibrator that was not captured. The […] ® Line Diluent is commercially available from Abbott Laboratories, Abbott Park, Ill.
# (§1) The mAb-Acridinium-conjugates at about 50-100 ng/mL were dispensed into the reaction vessel and incubated for approximately 4 minutes at a temperature of about 37° C. After the incubation, the reaction vessel was washed with the […] ® Line Diluent to remove the unbound materials.
# A solution of hydrogen peroxide and then sodium hydroxide was added to the reaction vessel and the chemiluminescent signal was measured by the chemiluminescent microparticle immunoassay (CMIA) optical assembly of the […] ® instrument.
# [11] = target: T1, human brain natriuretic peptide, cyclic …; assay: … sandwich CMIA; capture 106.3AM1 on microparticles, detection 3-631-436-acridinium
# Procedure: An aliquot containing a calibrator solution was delivered to the same well of the reaction vessel as the microparticles to form a reaction mixture. The calibrator solution contained hBNP full-length peptide. The microparticles coated with the capture antibody in a Tris/BSA diluent were pipetted by the sampling probe into the appropriate wells of the reaction vessel in the sampling center. […] After the incubation, the reaction mixture was washed with the […] ® Line Diluent to remove any of the calibrator that was not captured.
# as §1
# The […] ® system measures the acridinium signals which are typically measured in relative light units (hereinafter “rlu's”). Measurements were made in triplicate.
binder,measurement,setting,value
B1,koff,[1],8.44e-05 s⁻¹
same,koff,[2],8.4e-05 s⁻¹
same,half-life (t1/2),[3],2.28 h
B2,Kd,[4],18 pM
same,koff,[4],0.00022 s⁻¹
same,kon,[4],1.2e+07 M⁻¹ s⁻¹
B3,Fold Improvement,[5],15 fold
same,koff,[6],0.00032 s⁻¹
B4,Fold Improvement,[5],9 fold
same,koff,[6],0.00053 s⁻¹
B5,Fold Improvement,[5],10 fold
same,koff,[6],0.00049 s⁻¹
B6,Fold Improvement,[5],19 fold
same,koff,[6],0.00025 s⁻¹
B7,Fold Improvement,[5],4 fold
same,koff,[6],0.0014 s⁻¹
B8,Fold Improvement,[5],32 fold
same,koff,[6],0.00015 s⁻¹
B9,Fold Improvement,[5],28 fold
same,koff,[6],0.00017 s⁻¹
B10,Fold Improvement,[5],10 fold
same,koff,[6],0.0005 s⁻¹
B11,Fold Improvement,[5],3 fold
same,koff,[6],0.0019 s⁻¹
B12,Kd,[7],363 pM
same,koff,[7],0.0029 s⁻¹
same,kon,[7],8.4e+06 M⁻¹ s⁻¹
B13,Kd,[8],19 pM
same,koff,[8],0.00015 s⁻¹
same,kon,[8],7.8e+06 M⁻¹ s⁻¹
same,Kd,[9],1.7 pM
B14,Kd,[8],1.9 pM
same,koff,[8],2.4e-05 s⁻¹
same,kon,[8],1.3e+07 M⁻¹ s⁻¹
same,Ratio B/A (RLU at 30 pg/mL over 0 pg/mL),[10],1
same,Ratio C/A (RLU at 300 pg/mL over 0 pg/mL),[10],5.5
same,Ratio D/A (RLU at 1000 pg/mL over 0 pg/mL),[10],40.5
same,Ratio E/A (RLU at 2000 pg/mL over 0 pg/mL),[10],132
same,Ratio B/A (RLU at 30 pg/mL over 0 pg/mL),[11],1.6
same,Ratio C/A (RLU at 300 pg/mL over 0 pg/mL),[11],17.5
same,Ratio D/A (RLU at 1000 pg/mL over 0 pg/mL),[11],126
same,Ratio E/A (RLU at 2000 pg/mL over 0 pg/mL),[11],394
same,Kd,[9],9.3 pM
